B1: DDX28 (protein, UniProt Q9NUL7 1-540, looked up)
Probable ATP-dependent RNA …: MALTRPVRLFSLVTRLLLAPRRGLTVRSPDEPLPVVRIPVALQRQLEQRQSRRRNLPRPVLVRPGPLLVSARRPELNQPARLTLGRWERAPLASQGWKSRRARRDHFSIERAQQEAPAVRKLSSKGSFADLGLEPRVLHALQEAAPEVVQPTTVQSSTIPSLLRGRHVVCAAETGSGKTLSYLLPLLQRLLGQPSLDSLPIPAPRGLVLVPSRELAQQVRAVAQPLGRSLGLLVRDLEGGHGMRRIRLQLSRQPSADVLVATPGALWKALKSRLISLEQLSFLVLDEADTLLDESFLELVDYILEKSHIAEGPADLEDPFNPKAQLVLVGATFPEGVGQLLNKVASPDAVTTITSSKLHCIMPHVKQTFLRLKGADKVAELVHILKHRDRAERTGPSGTVLVFCNSSSTVNWLGYILDDHKIQHLRLQGQMPALMRVGIFQSFQKSSRDILLCTDIASRGLDSTGVELVVNYDFPPTLQDYIHRAGRVGRVGSEVPGTVISFVTHPWDVSLVQKIELAARRRRSLPGLASSVKEPLPQAT
B2: MAGED2 (protein, UniProt Q9UNF1 2-606, looked up)
Melanoma-associated antigen D2: SDTSESGAGLTRFQAEASEKDSSSMMQTLLTVTQNVEVPETPKASKALEVSEDVKVSKASGVSKATEVSKTPEAREAPATQASSTTQLTDTQVLAAENKSLAADTKKQNADPQAVTMPATETKKVSHVADTKVNTKAQETEAAPSQAPADEPEPESAAAQSQENQDTRPKVKAKKARKVKHLDGEEDGSSDQSQASGTTGGRRVSKALMASMARRASRGPIAFWARRASRTRLAAWARRALLSLRSPKARRGKARRRAAKLQSSQEPEAPPPRDVALLQGRANDLVKYLLAKDQTKIPIKRSDMLKDIIKEYTDVYPEIIERAGYSLEKVFGIQLKEIDKNDHLYILLSTLEPTDAGILGTTKDSPKLGLLMVLLSIIFMNGNRSSEAVIWEVLRKLGLRPGIHHSLFGDVKKLITDEFVKQKYLDYARVPNSNPPEYEFFWGLRSYYETSKMKVLKFACKVQKKDPKEWAAQYREAMEADLKAAAEAAAEAKARAEIRARMGIGLGSENAAGPCNWDEADIGPWAKARIQAGAEAKAKAQESGSASTGASTSTNNSASASASTSGGFSAGASLTATLTFGLFAGLGGAGASTSGSSGACGFSYK
B3: PRPF6 (protein, UniProt O94906 1-941, looked up)
Pre-mRNA-processing factor 6: MNKKKKPFLGMPAPLGYVPGLGRGATGFTTRSDIGPARDANDPVDDRHAPPGKRTVGDQMKKNQAADDDDEDLNDTNYDEFNGYAGSLFSSGPYEKDDEEADAIYAALDKRMDERRKERREQREKEEIEKYRMERPKIQQQFSDLKRKLAEVTEEEWLSIPEVGDARNKRQRNPRYEKLTPVPDSFFAKHLQTGENHTSVDPRQTQFGGLNTPYPGGLNTPYPGGMTPGLMTPGTGELDMRKIGQARNTLMDMRLSQVSDSVSGQTVVDPKGYLTDLNSMIPTHGGDINDIKKARLLLKSVRETNPHHPPAWIASARLEEVTGKLQVARNLIMKGTEMCPKSEDVWLEAARLQPGDTAKAVVAQAVRHLPQSVRIYIRAAELETDIRAKKRVLRKALEHVPNSVRLWKAAVELEEPEDARIMLSRAVECCPTSVELWLALARLETYENARKVLNKARENIPTDRHIWITAAKLEEANGNTQMVEKIIDRAITSLRANGVEINREQWIQDAEECDRAGSVATCQAVMRAVIGIGIEEEDRKHTWMEDADSCVAHNALECARAIYAYALQVFPSKKSVWLRAAYFEKNHGTRESLEALLQRAVAHCPKAEVLWLMGAKSKWLAGDVPAARSILALAFQANPNSEEIWLAAVKLESENDEYERARRLLAKARSSAPTARVFMKSVKLEWVQDNIRAAQDLCEEALRHYEDFPKLWMMKGQIEEQKEMMEKAREAYNQGLKKCPHSTPLWLLLSRLEEKIGQLTRARAILEKSRLKNPKNPGLWLESVRLEYRAGLKNIANTLMAKALQECPNSGILWSEAIFLEARPQRRTKSVDALKKCEHDPHVLLAVAKLFWSQRKITKAREWFHRTVKIDSDLGDAWAFFYKFELQHGTEEQQEEVRKRCESAEPRHGELWCAVSKDIANWQKKIGDILRLVAGRIKNTF
B4: TRIM26 (protein, UniProt Q12899 1-539, looked up)
Tripartite motif-containing …: MATSAPLRSLEEEVTCSICLDYLRDPVTIDCGHVFCRSCTTDVRPISGSRPVCPLCKKPFKKENIRPVWQLASLVENIERLKVDKGRQPGEVTREQQDAKLCERHREKLHYYCEDDGKLLCVMCRESREHRPHTAVLMEKAAQPHREKILNHLSTLRRDRDKIQGFQAKGEADILAALKKLQDQRQYIVAEFEQGHQFLREREEHLLEQLAKLEQELTEGREKFKSRGVGELARLALVISELEGKAQQPAAELMQDTRDFLNRYPRKKFWVGKPIARVVKKKTGEFSDKLLSLQRGLREFQGKLLRDLEYKTVSVTLDPQSASGYLQLSEDWKCVTYTSLYKSAYLHPQQFDCEPGVLGSKGFTWGKVYWEVEVEREGWSEDEEEGDEEEEGEEEEEEEEAGYGDGYDDWETDEDEESLGDEEEEEEEEEEEVLESCMVGVARDSVKRKGDLSLRPEDGVWALRLSSSGIWANTSPEAELFPALRPRRVGIALDYEGGTVTFTNAESQELIYTFTATFTRRLVPFLWLKWPGTRLLLRP
B5: ADAR (protein, UniProt P55265 1-1226, looked up)
Double-stranded RNA-specific …: MNPRQGYSLSGYYTHPFQGYEHRQLRYQQPGPGSSPSSFLLKQIEFLKGQLPEAPVIGKQTPSLPPSLPGLRPRFPVLLASSTRGRQVDIRGVPRGVHLRSQGLQRGFQHPSPRGRSLPQRGVDCLSSHFQELSIYQDQEQRILKFLEELGEGKATTAHDLSGKLGTPKKEINRVLYSLAKKGKLQKEAGTPPLWKIAVSTQAWNQHSGVVRPDGHSQGAPNSDPSLEPEDRNSTSVSEDLLEPFIAVSAQAWNQHSGVVRPDSHSQGSPNSDPGLEPEDSNSTSALEDPLEFLDMAEIKEKICDYLFNVSDSSALNLAKNIGLTKARDINAVLIDMERQGDVYRQGTTPPIWHLTDKKRERMQIKRNTNSVPETAPAAIPETKRNAEFLTCNIPTSNASNNMVTTEKVENGQEPVIKLENRQEARPEPARLKPPVHYNGPSKAGYVDFENGQWATDDIPDDLNSIRAAPGEFRAIMEMPSFYSHGLPRCSPYKKLTECQLKNPISGLLEYAQFASQTCEFNMIEQSGPPHEPRFKFQVVINGREFPPAEAGSKKVAKQDAAMKAMTILLEEAKAKDSGKSEESSHYSTEKESEKTAESQTPTPSATSFFSGKSPVTTLLECMHKLGNSCEFRLLSKEGPAHEPKFQYCVAVGAQTFPSVSAPSKKVAKQMAAEEAMKALHGEATNSMASDNQPEGMISESLDNLESMMPNKVRKIGELVRYLNTNPVGGLLEYARSHGFAAEFKLVDQSGPPHEPKFVYQAKVGGRWFPAVCAHSKKQGKQEAADAALRVLIGENEKAERMGFTEVTPVTGASLRRTMLLLSRSPEAQPKTLPLTGSTFHDQIAMLSHRCFNTLTNSFQPSLLGRKILAAIIMKKDSEDMGVVVSLGTGNRCVKGDSLSLKGETVNDCHAEIISRRGFIRFLYSELMKYNSQTAKDSIFEPAKGGEKLQIKKTVSFHLYISTAPCGDGALFDKSCSDRAMESTESRHYPVFENPKQGKLRTKVENGEGTIPVESSDIVPTWDGIRLGERLRTMSCSDKILRWNVLGLQGALLTHFLQPIYLKSVTLGYLFSQGHLTRAICCRVTRDGSAFEDGLRHPFIVNHPKVGRVSIYDSKRQSGKTKETSVNWCLADGYDLEILDGTRGTVDGPRNELSRVSKKNIFLLFKKLCSFRYRRDLLRLSYGEAKKAARDYETAKNYFKKGLKDMGYGNWISKPQEEKNFYLCPV
B6: RRP12 (protein, UniProt Q5JTH9 1-1297, looked up)
RRP12-like protein: MGRSGKLPSGVSAKLKRWKKGHSSDSNPAICRHRQAARSRFFSRPSGRSDLTVDAVKLHNELQSGSLRLGKSEAPETPMEEEAELVLTEKSSGTFLSGLSDCTNVTFSKVQRFWESNSAAHKEICAVLAAVTEVIRSQGGKETETEYFAALMTTMEAVESPESLAAVAYLLNLVLKRVPSPVLIKKFSDTSKAFMDIMSAQASSGSTSVLRWVLSCLATLLRKQDLEAWGYPVTLQVYHGLLSFTVHPKPKIRKAAQHGVCSVLKGSEFMFEKAPAHHPAAISTAKFCIQEIEKSGGSKEATTTLHMLTLLKDLLPCFPEGLVKSCSETLLRVMTLSHVLVTACAMQAFHSLFHARPGLSTLSAELNAQIITALYDYVPSENDLQPLLAWLKVMEKAHINLVRLQWDLGLGHLPRFFGTAVTCLLSPHSQVLTAATQSLKEILKECVAPHMADIGSVTSSASGPAQSVAKMFRAVEEGLTYKFHAAWSSVLQLLCVFFEACGRQAHPVMRKCLQSLCDLRLSPHFPHTAALDQAVGAAVTSMGPEVVLQAVPLEIDGSEETLDFPRSWLLPVIRDHVQETRLGFFTTYFLPLANTLKSKAMDLAQAGSTVESKIYDTLQWQMWTLLPGFCTRPTDVAISFKGLARTLGMAISERPDLRVTVCQALRTLITKGCQAEADRAEVSRFAKNFLPILFNLYGQPVAAGDTPAPRRAVLETIRTYLTITDTQLVNSLLEKASEKVLDPASSDFTRLSVLDLVVALAPCADEAAISKLYSTIRPYLESKAHGVQKKAYRVLEEVCASPQGPGALFVQSHLEDLKKTLLDSLRSTSSPAKRPRLKCLLHIVRKLSAEHKEFITALIPEVILCTKEVSVGARKNAFALLVEMGHAFLRFGSNQEEALQCYLVLIYPGLVGAVTMVSCSILALTHLLFEFKGLMGTSTVEQLLENVCLLLASRTRDVVKSALGFIKVAVTVMDVAHLAKHVQLVMEAIGKLSDDMRRHFRMKLRNLFTKFIRKFGFELVKRLLPEEYHRVLVNIRKAEARAKRHRALSQAAVEEEEEEEEEEEPAQGKGDSIEEILADSEDEEDNEEEERSRGKEQRKLARQRSRAWLKEGGGDEPLNFLDPKVAQRVLATQPGPGRGRKKDHGFKVSADGRLIIREEADGNKMEEEEGAKGEDEEMADPMEDVIIRNKKHQKLKHQKEAEEEELEIPPQYQAGGSGIHRPVAKKAMPGAEYKAKKAKGDVKKKGRPDPYAYIPLNRSKLNRRKKMKLQGQFKGLVKAARRGSQVGHKNRRKDRRP
B7: SLC39A7 (protein, UniProt Q92504 1-469, looked up)
Zinc transporter SLC39A7: MARGLGAPHWVAVGLLTWATLGLLVAGLGGHDDLHDDLQEDFHGHSHRHSHEDFHHGHSHAHGHGHTHESIWHGHTHDHDHGHSHEDLHHGHSHGYSHESLYHRGHGHDHEHSHGGYGESGAPGIKQDLDAVTLWAYALGATVLISAAPFFVLFLIPVESNSPRHRSLLQILLSFASGGLLGDAFLHLIPHALEPHSHHTLEQPGHGHSHSGQGPILSVGLWVLSGIVAFLVVEKFVRHVKGGHGHSHGHGHAHSHTRGSHGHGRQERSTKEKQSSEEEEKETRGVQKRRGGSTVPKDGPVRPQNAEEEKRGLDLRVSGYLNLAADLAHNFTDGLAIGASFRGGRGLGILTTMTVLLHEVPHEVGDFAILVQSGCSKKQAMRLQLLTAVGALAGTACALLTEGGAVGSEIAGGAGPGWVLPFTAGGFIYVATVSVLPELLREASPLQSLLEVLGLLGGVIMMVLIAHLE

How the values were obtained:
[1] = test system: GFP-14-3-3β and its binding proteins; assay: GFP-14-3-3β co-IP with LC-MS/MS label-free quantification, untreated versus PP1c-treated; set-up: species or system human; conditions: pairwise comparison PP1 vs untreated
GFP-14-3-3β = GFP-14-3-3β co-IP with LC-MS/MS, untreated GFP-14-3-3β versus GFP control (14-3-3 interactome); assay type: binding, human; conditions: pairwise comparison untreated vs GFP
[2] = log2 difference, label-free quantification, 3 replicates each

Row | Molecule | Difference (log2), PP1 vs untreated [1] [log2] | Difference (log2), untreated vs GFP (GFP-14-3-3β) [log2] | Difference (log2), PP1 vs untreated [1, 2] | Difference (log2), untreated vs GFP (GFP-14-3-3β; [2])
1 | B1 | 0.1504 | 0.1408 |  | 
2 | B2 | 0.1347 | 0.4555 |  | 
3 | B3 | 0.1336 | 1.324 |  | 
4 | B4 |  |  | 2.003 | -0.363
5 | B5 | 0.1214 | 1.541 |  | 
6 | B6 | 0.1167 | 0.888 |  | 
7 | B7 | 0.1123 | 0.9479 |  | 

From paper PMC7367873, “Dissecting the sequence determinants for dephosphorylation by the catalytic subunits of phosphatases PP1 and PP2A” (Nature Communications, 2020)
